Assay results published in patent publication US7183387 (Genentech, dated 2007).

T1: human FcγRIIA-R131 α subunit extracellular domain-His6-GST fusion (human, UniProt P12318 34-217)
T1 construct: ECD-6His-GST fusion made in 293 cells; also called FcγRIIA-Arg131; not shown: glutathione S transferase (GST)
T1 sequence: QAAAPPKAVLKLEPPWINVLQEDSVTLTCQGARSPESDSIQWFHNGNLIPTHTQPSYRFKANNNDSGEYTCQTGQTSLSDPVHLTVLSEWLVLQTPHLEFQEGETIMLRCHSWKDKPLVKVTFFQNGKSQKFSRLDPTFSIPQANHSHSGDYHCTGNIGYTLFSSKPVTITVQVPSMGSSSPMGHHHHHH

B1: anti-IgE E27 IgG1 variant K334(353)A (antibody)
heavy: not shown
light: DIQLTQSPSSLSASVGDRVTITCRASKPVDGEGDSYLNWYQQKPGKAPKLLIYAASYLESGVPSRFSGSGSGTDFTLTISSLQPEDFATYYCQQSHEDPYTFGQGTKVEIKRTVAAPSVFIFPPSDEQLKSGTASVVCLLNNFYPREAKVQWKVDNALQSGNSQESVTEQDSKDSTYSLSSTLTLSKADYEKHKVYACEVTHQGLSSPVTKSFNRGEC
notes: Fc variant of E27; also called IG2 55; G55
B2: anti-IgE E27 IgG1 variant E293(310)Q (antibody)
heavy: not shown
light: DIQLTQSPSSLSASVGDRVTITCRASKPVDGEGDSYLNWYQQKPGKAPKLLIYAASYLESGVPSRFSGSGSGTDFTLTISSLQPEDFATYYCQQSHEDPYTFGQGTKVEIKRTVAAPSVFIFPPSDEQLKSGTASVVCLLNNFYPREAKVQWKVDNALQSGNSQESVTEQDSKDSTYSLSSTLTLSKADYEKHKVYACEVTHQGLSSPVTKSFNRGEC
notes: Fc variant of E27
B3: anti-IgE E27 IgG1 variant K290(307)Q (antibody)
heavy: not shown
light: DIQLTQSPSSLSASVGDRVTITCRASKPVDGEGDSYLNWYQQKPGKAPKLLIYAASYLESGVPSRFSGSGSGTDFTLTISSLQPEDFATYYCQQSHEDPYTFGQGTKVEIKRTVAAPSVFIFPPSDEQLKSGTASVVCLLNNFYPREAKVQWKVDNALQSGNSQESVTEQDSKDSTYSLSSTLTLSKADYEKHKVYACEVTHQGLSSPVTKSFNRGEC
notes: Fc variant of E27; also called IG2 73
B4: anti-IgE E27 IgG1 variant K290(307)G (antibody)
heavy: not shown
light: DIQLTQSPSSLSASVGDRVTITCRASKPVDGEGDSYLNWYQQKPGKAPKLLIYAASYLESGVPSRFSGSGSGTDFTLTISSLQPEDFATYYCQQSHEDPYTFGQGTKVEIKRTVAAPSVFIFPPSDEQLKSGTASVVCLLNNFYPREAKVQWKVDNALQSGNSQESVTEQDSKDSTYSLSSTLTLSKADYEKHKVYACEVTHQGLSSPVTKSFNRGEC
notes: Fc variant of E27; also called IG2 177
B5: anti-IgE E27 IgG1 variant E333(352)A (antibody)
heavy: not shown
light: DIQLTQSPSSLSASVGDRVTITCRASKPVDGEGDSYLNWYQQKPGKAPKLLIYAASYLESGVPSRFSGSGSGTDFTLTISSLQPEDFATYYCQQSHEDPYTFGQGTKVEIKRTVAAPSVFIFPPSDEQLKSGTASVVCLLNNFYPREAKVQWKVDNALQSGNSQESVTEQDSKDSTYSLSSTLTLSKADYEKHKVYACEVTHQGLSSPVTKSFNRGEC
notes: Fc variant of E27; also called IG2 54; G54
B6: anti-IgE E27 IgG1 variant K290(307)A (antibody)
heavy: not shown
light: DIQLTQSPSSLSASVGDRVTITCRASKPVDGEGDSYLNWYQQKPGKAPKLLIYAASYLESGVPSRFSGSGSGTDFTLTISSLQPEDFATYYCQQSHEDPYTFGQGTKVEIKRTVAAPSVFIFPPSDEQLKSGTASVVCLLNNFYPREAKVQWKVDNALQSGNSQESVTEQDSKDSTYSLSSTLTLSKADYEKHKVYACEVTHQGLSSPVTKSFNRGEC
notes: Fc variant of E27; also called IG2 30; G30
B7: anti-IgE E27 IgG1 variant S298(317)V (antibody)
heavy: not shown
light: DIQLTQSPSSLSASVGDRVTITCRASKPVDGEGDSYLNWYQQKPGKAPKLLIYAASYLESGVPSRFSGSGSGTDFTLTISSLQPEDFATYYCQQSHEDPYTFGQGTKVEIKRTVAAPSVFIFPPSDEQLKSGTASVVCLLNNFYPREAKVQWKVDNALQSGNSQESVTEQDSKDSTYSLSSTLTLSKADYEKHKVYACEVTHQGLSSPVTKSFNRGEC
notes: Fc variant of E27; also called IG2 218
B8: anti-IgE E27 IgG1 variant K290(307)E (antibody)
heavy: not shown
light: DIQLTQSPSSLSASVGDRVTITCRASKPVDGEGDSYLNWYQQKPGKAPKLLIYAASYLESGVPSRFSGSGSGTDFTLTISSLQPEDFATYYCQQSHEDPYTFGQGTKVEIKRTVAAPSVFIFPPSDEQLKSGTASVVCLLNNFYPREAKVQWKVDNALQSGNSQESVTEQDSKDSTYSLSSTLTLSKADYEKHKVYACEVTHQGLSSPVTKSFNRGEC
notes: Fc variant of E27; also called IG2 77
B9: anti-IgE E27 IgG1 variant E333(352)N (antibody)
heavy: not shown
light: DIQLTQSPSSLSASVGDRVTITCRASKPVDGEGDSYLNWYQQKPGKAPKLLIYAASYLESGVPSRFSGSGSGTDFTLTISSLQPEDFATYYCQQSHEDPYTFGQGTKVEIKRTVAAPSVFIFPPSDEQLKSGTASVVCLLNNFYPREAKVQWKVDNALQSGNSQESVTEQDSKDSTYSLSSTLTLSKADYEKHKVYACEVTHQGLSSPVTKSFNRGEC
notes: Fc variant of E27; also called Glu333Asn
B10: anti-IgE E27 IgG1 variant E333(352)Q (antibody)
heavy: not shown
light: DIQLTQSPSSLSASVGDRVTITCRASKPVDGEGDSYLNWYQQKPGKAPKLLIYAASYLESGVPSRFSGSGSGTDFTLTISSLQPEDFATYYCQQSHEDPYTFGQGTKVEIKRTVAAPSVFIFPPSDEQLKSGTASVVCLLNNFYPREAKVQWKVDNALQSGNSQESVTEQDSKDSTYSLSSTLTLSKADYEKHKVYACEVTHQGLSSPVTKSFNRGEC
notes: Fc variant of E27
B11: anti-IgE E27 IgG1 variant E333(352)R (antibody)
heavy: not shown
light: DIQLTQSPSSLSASVGDRVTITCRASKPVDGEGDSYLNWYQQKPGKAPKLLIYAASYLESGVPSRFSGSGSGTDFTLTISSLQPEDFATYYCQQSHEDPYTFGQGTKVEIKRTVAAPSVFIFPPSDEQLKSGTASVVCLLNNFYPREAKVQWKVDNALQSGNSQESVTEQDSKDSTYSLSSTLTLSKADYEKHKVYACEVTHQGLSSPVTKSFNRGEC
notes: Fc variant of E27

Tests used:
[1] = target: T1, human FcγRIIA-R131 α subunit …; experiment: ELISA, IgG complex, receptor coated
[2] = target: T2, human FcγRIIIA-V158 α subunit extracellular domain-His6-GST fusion (human, UniProt P08637 17-208); experiment: ELISA, IgG complex, receptor coated
T2 construct: ECD-6His-GST fusion made in 293 cells; also called FcγRIIIA-Val158; not shown: glutathione S transferase (GST)
T2 sequence (P08637 other isoform, or with tags, fused parts or gaps, form in doubt): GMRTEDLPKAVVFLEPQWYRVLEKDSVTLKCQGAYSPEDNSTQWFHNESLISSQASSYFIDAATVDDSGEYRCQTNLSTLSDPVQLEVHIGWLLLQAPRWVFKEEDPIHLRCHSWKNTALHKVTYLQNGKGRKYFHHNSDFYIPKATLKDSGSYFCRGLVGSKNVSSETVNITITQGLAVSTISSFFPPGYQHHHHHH

[3] = target: T3, human FcγRIIIA-F158 α subunit extracellular domain-His6-GST fusion (human, UniProt P08637 17-208); experiment: ELISA, IgG complex, receptor coated
T3 construct: ECD-6His-GST fusion made in 293 cells; also called FcγRIIIA-Phe158; not shown: glutathione S transferase (GST)
T3 sequence (P08637 other isoform, or with tags, fused parts or gaps, form in doubt): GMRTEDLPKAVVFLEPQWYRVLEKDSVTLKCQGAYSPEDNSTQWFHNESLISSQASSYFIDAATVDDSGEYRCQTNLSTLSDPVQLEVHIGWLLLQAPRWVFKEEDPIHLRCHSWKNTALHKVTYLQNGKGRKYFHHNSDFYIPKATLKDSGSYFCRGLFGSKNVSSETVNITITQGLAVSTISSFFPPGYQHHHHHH

[4] = target: T2, human FcγRIIIA-V158 α subunit …; experiment: ELISA, IgG monomer, receptor coated

Binder	ratio of binding, variant/native IgG1 (mean) [1] [ratio]	ratio of binding, variant/native IgG1 (mean) [2] [ratio]	ratio of binding, variant/native IgG1 (mean) [3] [ratio]	ratio of binding, variant/native IgG1 (mean) [4] [ratio]
B1	1.01	1.07	1.39	1.6
B2	0.85	1	0.99	0.97
B3	1.17	1.02	1.4	1.3
B4	1.07	1.11	1.23	2.29
B5	0.92	1.1	1.27	1.29
B6	1.29	1.12	1.28	1.13
B7	–	0.88	0.33	0.39
B8	1.1	0.98	1.3	1.5
B9	0.59	0.64	0.56	0.56
B10	0.7	1.05	1.1	1
B11	0.75	0.92	0.84	0.83
